# Results published in patent US20230064326A1, “OPTOGENETIC COMPOSITIONS COMPRISING A CBh PROMOTER SEQUENCE AND METHODS FOR USE” (Vedere Bio II, Inc., priority 2021, published 2023).
# B1: CBh promoter: promoter of SEQ ID NO: 1: CMV enhancer, chicken beta actin promoter and hybrid intron; in b245 driving SNAP-mGluR2 (nucleic acid)
# DNA: CGTTACATAACTTACGGTAAATGGCCCGCCTGGCTGACCGCCCAACGACCCCCGCCCATTGACGTCAATAATGACGTATGTTCCCATAGTAACGCCAATAGGGACTTTCCATTGACGTCAATGGGTGGAGTATTTACGGTAAACTGCCCACTTGGCAGTACATCAAGTGTATCATATGCCAAGTACGCCCCCTATTGACGTCAATGACGGTAAATGGCCCGCCTGGCATTATGCCCAGTACATGACCTTATGGGACTTTCCTACTTGGCAGTACATCTACGTATTAGTCATCGCTATTACCATGGTCGAGGTGAGCCCCACGTTCTGCTTCACTCTCCCCATCTCCCCCCCCTCCCCACCCCCAATTTTGTATTTATTTATTTTTTAATTATTTTGTGCAGCGATGGGGGCGGGGGGGGGGGGGGGGCGCGCGCCAGGCGGGGCGGGGCGGGGCGAGGGGCGGGGCGGGGCGAGGCGGAGAGGTGCGGCGGCAGCCAATCAGAGCGGCGCGCTCCGAAAGTTTCCTTTTATGGCGAGGCGGCGGCGGCGGCGGCCCTATAAAAAGCGAAGCGCGCGGCGGGCGGGAGTCGCTGCGACGCTGCCTTCGCCCCGTGCCCCGCTCCGCCGCCGCCTCGCGCCGCCCGCCCCGGCTCTGACTGACCGCGTTACTCCCACAGGTGAGCGGGCGGGACGGCCCTTCTCCTCCGGGCTGTAATTAGCTGAGCAAGAGGTAAGGGTTTAAGGGATGGTTGGTTGGTGGGGTATTAATGTTTAATTACCTGGAGCACCTGCCTGAAATCACTTTTTTTCAG
# modifications: misc_feature 1..812 CBH promoter sequence
# notes: in b245 driving SNAP-mGluR2
# System: NHP retinas
# Experiment: SNAP immunostaining to visualize SNAP-mGluR2 expression in NHP retinas
# Assay type: in vivo, Cynomolgus macaques and African Green monkeys
# Conditions: non-human primates; central and peripheral retina
molecule,measurement,value
B1,"expression of a SNAP-mGluR2 transgene, promoter comparison (CBh vs synapsin)",much more robust expression
